For series [1], the system named is transgenic T1 soybean events. The experiment in a line: Field trials of T1 soybean events, leaf damage eight days after application. Format: in vivo. The settings on record: wild-type or segregated T1 soybean plants without tolerant polypeptide; 210 g/ha isoxaflutole or 150 g/ha Cmpd. 1; eight days. In a few lines: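 T1 soybean events carrying the HPPD inhibitor tolerant polypeptide, field-grown and sprayed with isoxaflutole 210 g/ha or Cmpd 150 g/ha. Leaf damage scored eight days after application; good tolerance defined as ≤15% damaged leaf area, reported as event frequency.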

The subject of series [2] is HPPD polypeptides (wild-type SEQ ID NO:1 and mutants). The settings on record: high substrate concentration; for Residual activity: kapp normalized to kapp without inhibitor; for Residual turnover: total change in signal normalized to no inhibitor.
The mark [3] stands for this setting: in the presence of Cmpd. 1, 15 μM inhibitor.
Where [4] appears, read: in the presence of Cmpd. 2, 15 μM inhibitor.
The mark [5] stands for this setting: in the presence of diketonitrile (DKN), 60 μM inhibitor.
The mark [6] stands for this setting: in the presence of mesotrione (MST), 60 μM inhibitor.

Where two headings read alike, the source gives them in different places.

As for `CSc1c(C(F)(F)F)ccc(C(=O)Nc2nnnn2C)c1Cl` [Cmpd. 1, 2-chloro-3-(methylsulfanyl)-N-(1-methyl-1H-tetrazol-5-yl)-4-(trifluoromethyl)benzamide, reference compound], the leaf damage in series [1] is on record as 100%. The Residual activity in series [2] (setting [3]) worked out at 6%; in series [2] (setting [4]) it was 8%; in series [2] (setting [5]) it was 7%; in series [2] (setting [6]), 6%. In addition, the Residual turnover in series [2] (setting [3]) stood at 6%; in series [2] (setting [4]) it was 8%; in series [2] (setting [5]), 8%; in series [2] (setting [6]) it was 8%.

For the origin of these results see US10597674B2, “HPPD variants and methods of use” (BASF Agricultural Solutions Seed, US LLC, priority 2015, dated 2020).
